# Experimental data from patent US20240270874A1 (JIANGSU HENGRUI PHARMACEUTICALS, published 2024).
# Substitutions are numbered along the chain they refer to. Numbers in names are those of the source.
# T1: human KLB on CHOK1-hKLB cells (human, UniProt Q86Z14 1-1044)
# T1 construct: whole, on cells; also called human KLB antigen; β-Klotho
# T1 sequence (looked up): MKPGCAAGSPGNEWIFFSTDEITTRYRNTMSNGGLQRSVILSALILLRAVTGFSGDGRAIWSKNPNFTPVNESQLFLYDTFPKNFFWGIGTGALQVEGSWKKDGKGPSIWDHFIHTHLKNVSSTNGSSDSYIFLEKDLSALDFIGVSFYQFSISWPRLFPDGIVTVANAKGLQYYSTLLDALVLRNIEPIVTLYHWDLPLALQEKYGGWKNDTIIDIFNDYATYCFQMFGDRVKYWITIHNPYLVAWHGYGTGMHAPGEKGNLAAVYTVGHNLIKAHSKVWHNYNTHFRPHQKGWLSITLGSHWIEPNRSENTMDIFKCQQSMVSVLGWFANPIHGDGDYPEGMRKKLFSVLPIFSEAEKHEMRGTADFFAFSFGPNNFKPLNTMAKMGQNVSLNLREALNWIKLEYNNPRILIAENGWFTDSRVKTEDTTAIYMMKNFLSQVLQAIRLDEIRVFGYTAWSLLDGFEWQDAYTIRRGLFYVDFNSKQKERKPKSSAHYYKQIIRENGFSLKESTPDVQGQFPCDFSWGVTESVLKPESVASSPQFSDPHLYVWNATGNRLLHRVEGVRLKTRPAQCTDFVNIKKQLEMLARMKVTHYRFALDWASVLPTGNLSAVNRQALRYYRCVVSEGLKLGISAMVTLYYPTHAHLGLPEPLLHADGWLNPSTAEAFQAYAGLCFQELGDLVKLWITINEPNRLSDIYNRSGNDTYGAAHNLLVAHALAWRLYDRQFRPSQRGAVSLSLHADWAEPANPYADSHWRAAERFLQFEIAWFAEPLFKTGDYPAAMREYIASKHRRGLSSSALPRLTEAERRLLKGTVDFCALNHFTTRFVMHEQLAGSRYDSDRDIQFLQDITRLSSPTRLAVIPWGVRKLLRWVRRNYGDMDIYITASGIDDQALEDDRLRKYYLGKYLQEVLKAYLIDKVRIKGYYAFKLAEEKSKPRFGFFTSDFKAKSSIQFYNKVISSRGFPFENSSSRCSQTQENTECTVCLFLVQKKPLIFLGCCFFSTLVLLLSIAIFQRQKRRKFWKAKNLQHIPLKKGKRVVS
# B1: hAb99-6 (antibody, human IgG1, kappa, L234A L235A)
# heavy: not shown
# light: DIQMTQSPSSLSASVGDRVTITCRASKSISKFLAWFQQKPGKTNKLLIYSGSTLQSGVPSRFSGSGSGTDFTLTISSLQPEDFATYYCQQHNEYPWTFGGGTKVEIKRTVAAPSVFIFPPSDEQLKSGTASVVCLLNNFYPREAKVQWKVDNALQSGNSQESVTEQDSKDSTYSLSSTLTLSKADYEKHKVYACEVTHQGLSSPVTKSFNRGEC
# notes: humanized mAb-99: hAb99VH2 + hAb99VL2; human IgG1 (L234A, L235A) / kappa constant regions
# B2: hAb99-21 (antibody, human IgG1, kappa, L234A L235A, V domains shown)
# VH: EVQLVQSGAEVKKPGASVKVSCKTSGYTFTNYGINWVRQAPGQGLEWMGYIYIGQGDIEYNAKFKGRVTITSDTSASTAYMELSSLRSEDTAVYFCARGRGLGHFDVWGQGTTVTVSS
# VL: DIQMTQSPSSLSASVGDRVTITCRASKSISKFLAWFQQKPGKTNKLLIYSGSTLQSGVPSRFSGSGSGTDFTLTISSLQPEDFATYYCQQHNEYPWTFGGGTKVEIKR
# notes: humanized mAb-99: hAb99VH3-QG + hAb99VL2; human IgG1 (L234A, L235A) / kappa constant regions
# B3: hAb99-15 (antibody, human IgG1, kappa, L234A L235A, V domains shown)
# VH: B2 VH with T24A, G44R, F95Y
# VL: B2 VL
# notes: humanized mAb-99: hAb99VH1-QG + hAb99VL2; human IgG1 (L234A, L235A) / kappa constant regions
# B4: hAb99-11 (antibody, human IgG1, kappa, L234A L235A)
# heavy: not shown
# light: B1 light with I2V, M4I
# notes: humanized mAb-99: hAb99VH3 + hAb99VL3; human IgG1 (L234A, L235A) / kappa constant regions
# B5: hAb99-9 (antibody, human IgG1, kappa, L234A L235A, V domains shown)
# VH: B2 VH with Q55N
# VL: B2 VL with F36Y, T43A
# notes: humanized mAb-99: hAb99VH3 + hAb99VL1; human IgG1 (L234A, L235A) / kappa constant regions
# B6: hAb99-17 (antibody, human IgG1, kappa, L234A L235A, V domains shown)
# VH: B2 VH with T24A, Q55N, G56L, F95Y
# VL: B2 VL
# notes: humanized mAb-99: hAb99VH2-NL + hAb99VL2; human IgG1 (L234A, L235A) / kappa constant regions
# B7: hAb99-2 (antibody, human IgG1, kappa, L234A L235A)
# heavy: not shown
# light: B1 light
# notes: humanized mAb-99: hAb99VH1 + hAb99VL2; human IgG1 (L234A, L235A) / kappa constant regions
# B8: hAb99-19 (antibody, human IgG1, kappa, L234A L235A, V domains shown)
# VH: B2 VH with Q55N, G56V
# VL: B2 VL
# notes: humanized mAb-99: hAb99VH3-NV + hAb99VL2; human IgG1 (L234A, L235A) / kappa constant regions
# B9: hAb99-3 (antibody, human IgG1, kappa, L234A L235A)
# heavy: not shown
# light: B1 light with I2V, M4I
# notes: humanized mAb-99: hAb99VH1 + hAb99VL3; human IgG1 (L234A, L235A) / kappa constant regions
# B10: hAb99-4 (antibody, human IgG1, kappa, L234A L235A, V domains shown)
# VH: B2 VH with T24A, G44R, Q55N, F95Y
# VL: B2 VL with I2V, M4I, Q38E, V58I
# notes: humanized mAb-99: hAb99VH1 + hAb99VL4; human IgG1 (L234A, L235A) / kappa constant regions
# B11: hAb99-16 (antibody, human IgG1, kappa, L234A L235A, V domains shown)
# VH: B2 VH with T24A, Q55N, G56V, F95Y
# VL: B2 VL
# notes: humanized mAb-99: hAb99VH2-NV + hAb99VL2; human IgG1 (L234A, L235A) / kappa constant regions
# B12: hAb99-12 (antibody, human IgG1, kappa, L234A L235A, V domains shown)
# VH: B2 VH with Q55N
# VL: B2 VL with I2V, M4I, Q38E, V58I
# notes: humanized mAb-99: hAb99VH3 + hAb99VL4; human IgG1 (L234A, L235A) / kappa constant regions
# B13: hAb99-10 (antibody, human IgG1, kappa, L234A L235A)
# heavy: not shown
# light: B1 light
# notes: humanized mAb-99: hAb99VH3 + hAb99VL2; human IgG1 (L234A, L235A) / kappa constant regions
# B14: hAb99-7 (antibody, human IgG1, kappa, L234A L235A)
# heavy: not shown
# light: B1 light with I2V, M4I
# notes: humanized mAb-99: hAb99VH2 + hAb99VL3; human IgG1 (L234A, L235A) / kappa constant regions
# B15: hAb99-1 (antibody, human IgG1, kappa, L234A L235A, V domains shown)
# VH: B2 VH with T24A, G44R, Q55N, F95Y
# VL: B2 VL with F36Y, T43A
# notes: humanized mAb-99: hAb99VH1 + hAb99VL1; human IgG1 (L234A, L235A) / kappa constant regions
# B16: hAb99-8 (antibody, human IgG1, kappa, L234A L235A, V domains shown)
# VH: B2 VH with T24A, Q55N, F95Y
# VL: B2 VL with I2V, M4I, Q38E, V58I
# notes: humanized mAb-99: hAb99VH2 + hAb99VL4; human IgG1 (L234A, L235A) / kappa constant regions
# B17: hAb99-14 (antibody, human IgG1, kappa, L234A L235A, V domains shown)
# VH: B2 VH with T24A, G44R, Q55N, G56L, F95Y
# VL: B2 VL
# notes: humanized mAb-99: hAb99VH1-NL + hAb99VL2; human IgG1 (L234A, L235A) / kappa constant regions
# B18: hAb99-5 (antibody, human IgG1, kappa, L234A L235A, V domains shown)
# VH: B2 VH with T24A, Q55N, F95Y
# VL: B2 VL with F36Y, T43A
# notes: humanized mAb-99: hAb99VH2 + hAb99VL1; human IgG1 (L234A, L235A) / kappa constant regions
# B19: hAb99-20 (antibody, human IgG1, kappa, L234A L235A, V domains shown)
# VH: B2 VH with Q55N, G56L
# VL: B2 VL
# notes: humanized mAb-99: hAb99VH3-NL + hAb99VL2; human IgG1 (L234A, L235A) / kappa constant regions
# B20: hAb99-18 (antibody, human IgG1, kappa, L234A L235A, V domains shown)
# VH: B2 VH with T24A, F95Y
# VL: B2 VL
# notes: humanized mAb-99: hAb99VH2-QG + hAb99VL2; human IgG1 (L234A, L235A) / kappa constant regions
# B21: hAb18-2 (antibody, human IgG1, kappa, L234A L235A, V domains shown)
# VH: EVQLVQSGAEVKKPGASVKVSCKASGYTFTDYAMHWVRQAPGQRLEWMGVISTYSGTTNYNQNFKGRVTITVDKSASTAYMELSSLRSEDTAVYYCARSGPLDYWGQGTTVTVSS
# VL: ENVLTQSPDFQSVTPKEKVTITCRASSSVSSSYLHWYQQKPDQSPKLWIYSTSNLASGVPSRFSGSGSGTDYTLTINSLEAEDAATYYCQQYSGYPLTFGQGTKLEIKR
# notes: humanized mAb-18: hAb18VH1 + hAb18VL2; human IgG1 (L234A, L235A) / kappa constant regions
# B22: hAb18-4 (antibody, human IgG1, kappa, L234A L235A, V domains shown)
# VH: B21 VH with A24G, I70V
# VL: B21 VL
# notes: humanized mAb-18: hAb18VH2 + hAb18VL2; human IgG1 (L234A, L235A) / kappa constant regions
# B23: hAb18-3 (antibody, human IgG1, kappa, L234A L235A, V domains shown)
# VH: B21 VH with A24G, I70V
# VL: B21 VL with N2I, Y72F
# notes: humanized mAb-18: hAb18VH2 + hAb18VL1; human IgG1 (L234A, L235A) / kappa constant regions
# B24: hAb18-6 (antibody, human IgG1, kappa, L234A L235A, V domains shown)
# VH: B21 VH with A24G, M48I, V68A, I70V
# VL: B21 VL
# notes: humanized mAb-18: hAb18VH3 + hAb18VL2; human IgG1 (L234A, L235A) / kappa constant regions
# B25: hAb18-1 (antibody, human IgG1, kappa, L234A L235A, V domains shown)
# VH: B21 VH
# VL: B21 VL with N2I, Y72F
# notes: humanized mAb-18: hAb18VH1 + hAb18VL1; human IgG1 (L234A, L235A) / kappa constant regions
# B26: hAb18-5 (antibody, human IgG1, kappa, L234A L235A, V domains shown)
# VH: B21 VH with A24G, M48I, V68A, I70V
# VL: B21 VL with N2I, Y72F
# notes: humanized mAb-18: hAb18VH3 + hAb18VL1; human IgG1 (L234A, L235A) / kappa constant regions
# B27: hAb18-7 (antibody, human IgG1, kappa, L234A L235A, V domains shown)
# VH: B21 VH
# VL: B21 VL with N54Q
# notes: humanized mAb-18: hAb18VH1 + hAb18VL2-1; human IgG1 (L234A, L235A) / kappa constant regions
# Molecular target: T1, human KLB on CHOK1-hKLB cells
# Test: flow cytometry on CHOK1-hKLB cells
# Text: The above heavy chain variable regions were fused to the heavy chain constant region (set forth in SEQ ID NO: 22) and the light chain variable regions were fused to the light chain constant region (set forth in SEQ ID NO: 23) to construct anti-KLB antibodies, and the binding activity of the obtained antibodies for CHOK1-hKLB was detected (see Test Example 2 of the present disclosure for the experimental method).
# The binding ability of the antibodies for CHOK1 cell strains CHOK1-hKLB and CHOK1-cynoKLB overexpressing human KLB and monkey KLB (see Example 1 for specific preparation procedure), respectively, was detected by flow cytometry. The specific procedure was as follows: the above cells were cultured in 10% FBS-containing IMDM medium and incubated in an incubator at 37° C. and 5% CO₂ for 2 days. The cells were then added to a cell plate at 1×10⁵ cells per well, centrifuged at 300 g for 5 min, and then washed once with 1% BSA. The antibody diluted in gradient was added to the cell plate at 100 μL per well, and the mixture was incubated at 4° C. for 1 h and washed once with 1% BSA. The diluted (1:400) APC-goat anti-human IgG Fc fluorescent secondary antibody was added at 100 μL per well, and the resulting mixture was incubated at 4° C. for 1 h. The plate was washed three times with 1% BSA, PBS was added at 100 μL per well, and the plate was read.
row,EC50 [nM],Binder
1,0.41,B1
2,0.45,B2
3,0.41,B3
4,0.33,B4
5,0.47,B5
6,0.43,B6
7,0.35,B7
8,0.38,B8
9,0.35,B9
10,0.37,B10
11,0.47,B11
12,0.33,B12
13,0.36,B13
14,0.35,B14
15,0.61,B15
16,0.39,B16
17,0.6,B17
18,0.5,B18
19,0.41,B19
20,0.43,B20
21,1.58,B21
22,2,B22
23,1.9,B23
24,2,B24
25,1.34,B25
26,1.8,B26
27,2.4,B27
